Legend:
Bovine serum albumin [1] = biological target: T1, Bovine serum albumin (bovine, UniProt P02769 25-607); test: ELISA on 1% BSA, HEK293F supernatant, anti-rabbit IgG-HRP, n=1
T1 construct: Negative control antigen in ELISA; also called BSA
Method: FIG. 9. A panel of anti-tau IgG bind to linear immunogen peptide and full length recombinant 2N4R tau in ELISA format. […] Binding of anti-tau IgG was detected using an HRP-conjugated anti-rabbit secondary antibody and data shown are from a representative experiment (n=1).
(§1) Antigen was removed from wells and the plates were then blocked for 1 hour at RT with 5% dried milk in 1×TBS. Blocking solution was removed. HEK293F cell supernatant (10 μg/mL, to 0.0001 μg/mL in 1% BSA/1×TBS) was added to relevant wells, and plates were incubated for 1 hour at RT with gentle shaking. Plates were then washed four times with TBS/0.1% Tween (TBST). Anti-rabbit IgG-HRP antibody (Sigma. St Louis, Mo., USA), diluted 1:5000 in 5% milk/TBS, was added to each well and plates were incubated for 1 hour at RT with gentle shaking before being washed four times with TBST. 3,3′,5,5′-tetramethylbenzidine (TMB) ELISA solution was added to each well and plates were incubated for 15 mins at RT. An equal volume of 1 M sulfuric acid was added to each well and OD was measured at 450 nm.

[2] = biological target: T2, full length recombinant human 2N4R tau (amino acids 1-441) (human, UniProt P10636 1-758); test: ELISA, HEK293F supernatant on coated tau
T2 construct: Bought (rPeptide); recombinant, non-phosphorylated; also called recombinant tau
T2 sequence (P10636 other isoform, or with tags, fused parts or gaps limits assumed): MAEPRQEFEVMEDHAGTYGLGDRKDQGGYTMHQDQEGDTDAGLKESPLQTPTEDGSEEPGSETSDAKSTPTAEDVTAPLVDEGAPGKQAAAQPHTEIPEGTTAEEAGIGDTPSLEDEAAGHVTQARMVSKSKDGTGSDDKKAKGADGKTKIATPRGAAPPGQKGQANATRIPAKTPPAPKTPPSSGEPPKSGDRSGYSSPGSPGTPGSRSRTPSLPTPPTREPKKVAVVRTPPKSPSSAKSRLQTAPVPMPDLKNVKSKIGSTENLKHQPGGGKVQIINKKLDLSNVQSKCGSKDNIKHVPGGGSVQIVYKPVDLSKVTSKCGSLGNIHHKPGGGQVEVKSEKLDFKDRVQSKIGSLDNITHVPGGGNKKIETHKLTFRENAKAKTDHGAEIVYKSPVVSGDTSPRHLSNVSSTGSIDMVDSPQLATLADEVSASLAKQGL
Method: as §1

Bovine serum albumin [3] = biological target: T1, Bovine serum albumin; test: phage ELISA
Method: 10.1 Phage ELISA: Supernatants prepared from bacterial cultures infected with phage displaying scFv were tested for binding to full length recombinant 2N4R tau (100 ng/well), target peptide (SEQ ID NO: 13) conjugated to BSA or transferrin (1 μg/well) or BSA (1% in TBS) using standard methods. Antigen was coated onto ELISA plates, then removed, and plates were blocked for 1 h with 5% dried milk in TBS. Samples were diluted 1:25 in 1% BSA/TBS then added to the ELISA plate for 1 h at room temperature (RT). Plates were then washed ×4 with TBS/0.1% Tween (TBST). Alpha-M13-HRP antibody (Abcam, Cambridge, UK) was added (1:5000 dilution in 5% milk/TBS) and incubated for 1 h at RT before washing ×4. TMB ELISA solution was added to each well for 10 min at RT, followed by 1 M sulphuric acid. OD was then measured at 450 nm.

[4] = biological target: full length pHrodo-labelled aggregated (P301S) 2N4R tau (human, UniProt P10636 1-758, labelled with pHrodo Red Maleimide); test: cell-based or functional assay
Sequence of full length pHrodo-labelled aggregated (P301S) 2N4R tau (P10636 other isoform, or with tags, fused parts or gaps P301S P301S): as the sequence (P10636 other isoform, or with tags, fused parts or gaps limits assumed) above, with P301S counted along it

[5] = biological target: full length pHrodo-labelled monomeric (P301S) 2N4R tau (human, UniProt P10636 1-758, labelled with pHrodo Red Maleimide); test: cell-based or functional assay
Sequence of full length pHrodo-labelled monomeric (P301S) 2N4R tau (P10636 other isoform, or with tags, fused parts or gaps P301S P301S): as the sequence (P10636 other isoform, or with tags, fused parts or gaps limits assumed) above, with P301S counted along it

[6] = biological target: T2, full length recombinant human 2N4R tau …; test: SPR Biacore MCK, purified IgG on Protein A, tau analyte
Method: Biacore multi-cycle kinetics (MCK) analyses for antibody binding to recombinant (non-phosphorylated) 2N4R tau are summarised in FIG. 23 and Table 8. […] Slight variations in RMAX are considered likely to be due to differences in ligand capture and not reflective of significant variation in antibody binding characteristics.
24.2 Assessment of antibody binding to tau (Biacore MCK analysis): Binding of anti-tau hIgG1 to full length recombinant 2N4R tau (Rpeptide; SEQ ID NO: 2) was assessed using the Biacore T200 (GE Healthcare, Chicago, Ill., USA) running Biacore T200 Evaluation Software V2.0.1. hIgG1 were immobilised on a Protein A capture sensor chip in running buffer (HBS-EP+ buffer containing 1 mg/mL BSA) at 25° C. captured to ˜50 RU at 10 μL/min. […] Curves were compared to a reference cell that was mock immobilized (no antibody present).

[7] = biological target: T2, full length recombinant human 2N4R tau …; test: SPR Biacore SCK, IgG on Protein A, tau analyte
Method: 23.5 Assessment of antibody binding to tau (Biacore SCK analysis): Binding of anti-tau hIgG1 to full length recombinant 2N4R tau (Rpeptide; SEQ ID NO: 2) was assessed using the Biacore T200 (GE Healthcare, Chicago, Ill., USA) running Biacore T200 Evaluation Software V2.0.1. hIgG1 were immobilised on a Protein A capture sensor chip in running buffer (HBS-EP+ buffer containing 1 mg/mL BSA) at 25° C. captured to ˜50 RU at 10 μL/min. For single-cycle kinetics experiments, recombinant 2N4R tau was flowed at concentrations ranging from 5 nM to 40 nM (2-fold dilutions) with an association time of 150 s and a dissociation time of 200 s. Curves were compared to a reference cell that was mock immobilized (no antibody present).
Data were analysed using Langmuir (1:1) binding analysis, describing a 1:1 interaction at the surface: […]

Bovine serum albumin [8] = biological target: T1, Bovine serum albumin; test: ELISA on 1% BSA, HEK supernatant, anti-human IgG-HRP, n=1
Method: as §1, with “removed, HEK293” for “removed. HEK293F”, “(1:100” for “(10 μg/mL, to 0.0001 μg/mL”, “Goat-anti-human” for “Anti-rabbit”, “(ThermoFisher Scientific, Waltham, Mass.” for “(Sigma. St Louis, Mo.,”, “1:2000” for “1:5000”

T1 sequence (P02769 25-607 limits assumed): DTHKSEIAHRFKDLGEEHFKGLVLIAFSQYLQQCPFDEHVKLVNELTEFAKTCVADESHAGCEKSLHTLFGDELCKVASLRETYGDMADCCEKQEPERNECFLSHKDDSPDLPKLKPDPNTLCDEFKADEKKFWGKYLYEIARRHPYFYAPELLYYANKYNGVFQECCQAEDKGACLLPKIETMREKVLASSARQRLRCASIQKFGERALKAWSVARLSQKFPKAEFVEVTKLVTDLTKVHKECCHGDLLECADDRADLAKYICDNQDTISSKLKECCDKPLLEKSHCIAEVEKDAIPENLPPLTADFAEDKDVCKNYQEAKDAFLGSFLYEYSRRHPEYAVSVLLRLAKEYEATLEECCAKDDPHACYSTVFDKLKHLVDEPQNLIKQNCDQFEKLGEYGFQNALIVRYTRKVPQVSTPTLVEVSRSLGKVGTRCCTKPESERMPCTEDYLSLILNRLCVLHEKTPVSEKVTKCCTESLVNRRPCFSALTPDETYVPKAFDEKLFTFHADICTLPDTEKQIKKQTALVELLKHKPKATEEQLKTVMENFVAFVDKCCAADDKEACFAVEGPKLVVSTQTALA

B1: Clone 6 rabbit monoclonal IgG (antibody, V domains shown)
VH: QSVEESGGRLVTPGTPLTLTCTVSGFSLSSYDMSWVRQAPGKGLEWIGTIGRYYNTYYATWAKGRFTISKTSSTTVDLKMTSLTTEDTATYFCASSGIWGPGTLVTVSL
VL: AQVLTQTASPVSAAVGGTVTINCQSSQTVYNNNYLSWYQQKPGQPPKRLIYLASTLESGVPSRFSGSGSGTQFTLTISGVVCDDAATYYCAGTYSGSIWAFGGGTEVVVKG
notes: Rabbit IgG expressed in HEK293F; also called P2-C11; A4
Question: Which results are given for B1?
Answer: binding result (Bovine serum albumin [1]): no binding (tested: supernatant 1:50); OD (ELISA) [2]: 0.3 OD

B2: Clone 7 rabbit monoclonal IgG (antibody, V domains shown)
VH: QSVEESGGRLVTPGTPLTLTCTVSGFSLSSYDMSWVRQAPGKGLEWIGTIGRYYNTYYATWAKGRFTISKTSSTTVDLKMTSLTTEDTATYFCASSGIWGPGTLVTVSL
VL: AQVLTQTASPVSAAVGGTVTINCQSSQTVYNNNYLSWYQQKPGQPPKRLIYLASTLESGVPSRFSGSGSGTQFTLTISGVVCDDAATYYCAGTYSGSIWAFGGGTEVVVKG
notes: Rabbit IgG expressed in HEK293F; also called P1-D10; D2
Question: Does B2 bind (Bovine serum albumin [1])?
Answer: no binding (tested: supernatant 1:50)

Question: And the “OD (ELISA)” value [2]?
Answer: 0.3 OD

B3: Clone 8 rabbit monoclonal IgG (antibody, V domains shown)
VH: QSLEESGGRLVAPGTPLTLTCTVSGFSLSSYDMSWVRQAPGRGLEWIGTISSSYRTYYASWAKGRFTISKTSSTTVDLKMTSLTTEDTATYFCASSGIWGPGTLVTVSL
VL: AQVLTQTASPVSAAVGGTVTINCQSSQRVYNNYLAWYQQKPGQPPKRLIYLASTLESGVPSRFSGSGSGTQFTLTISGVVCDDAATYYCAGTYSGSIWAFGGGTEVVVKG
notes: Rabbit IgG expressed in HEK293F; also called P2-F3; H2
Question: Does B3 bind (Bovine serum albumin [1])?
Answer: no binding (tested: supernatant 1:50)

Question: And the “OD (ELISA)” value [2]?
Answer: 0.3 OD

B4: Clone 5 rabbit monoclonal IgG (antibody, V domains shown)
VH: QSLEESGGRLVAPGTPLTLTCTVSGFSLSSYDMSWVRQAPGRGLEWIGTISSSYRTYYASWAKGRFTISKTSSTTVDLKMTSLTTEDTATYFCASSGIWGPGTLVTVSL
VL: AQVLTQTASPVSAAVGGTVTINCQSSQRVYNNYLAWYQQKPGQPPKRLIYLASTLESGVPSRFSGSGSGTQFTLTISGVVCDDAATYYCAGTYSGSIWAFGGGTEVVVKG
notes: Rabbit IgG expressed in HEK293F; also called P1-B2; A1
Question: Does B4 bind (Bovine serum albumin [1])?
Answer: no binding (tested: supernatant 1:50)

Question: What about the “OD (ELISA)” value [2] of the same binder?
Answer: 0.3 OD

B5: Clone 3 rabbit monoclonal IgG (antibody, V domains shown)
VH: QSVEESGGRLVTPGTPLTLTCTASGFSLSRYDMSWVRQAPGKGLEWIGTISGSYNTYYMSWAKGRFTISKTSSTTVDLKMTSLTTEDTATYFCASSGIWGPGTLVTVSL
VL: AQVLTQTASPVSAAVGGTVTINCQSSQRVYSNYLSWYQQKPGQPPRRLIWLASTLESGVPSRFSGSGSGTQFTLTISGVVCDDAATYYCAGTYSGSIWAFGGGTEVVVKG
notes: Rabbit IgG expressed in HEK293F; also called P2-B12; D4
Question: Does B5 bind (Bovine serum albumin [1])?
Answer: no binding (tested: supernatant 1:50)

Question: And the “OD (ELISA)” value [2]?
Answer: 0.3 OD

B6: Clone 4 rabbit monoclonal IgG (antibody, V domains shown)
VH: QSVEESGGRLVTPGTPLTLTCTVSGFSLSSYDMSWVRQAPGKGLEWIGTIGRYYNTYYATWAKGRFTISKTSSTTVDLKMTSLTTEDTATYFCASSGIWGPGTLVTVSL
VL: AQVLTQTASPVSAAVGGTVTINCQSSQTVYNNNYLSWYQQKPGQPPKRLIYLASTLESGVPSRFSGSGSGTQFTLTISGVVCDDAATYYCAGTYSGSIWAFGGGTEVVVKG
notes: Rabbit IgG expressed in HEK293F; also called P2-E5; B3
Question: Does B6 bind (Bovine serum albumin [1])?
Answer: no binding (tested: supernatant 1:50)

Question: What about the “OD (ELISA)” value [2] of the same binder?
Answer: 0.3 OD

B7: Clone 13 human scFv (phage displayed) (scFv, V domains shown)
VH: ESGGGVVKPGGSLRLACEASGFTFNKYAMSWVRQAPGKGLEWVSGNSGSGNSTYYADSVKGRFTISRDNSKNILYLDMNNLRAEDTALYYCAKTRGAGRRKPYGMDVWGHGTTVTVSS
VL: VMTQSPSTLSLSPGERATLSCRASQSVANNYLAWYQHKPGQAPRVLIYGASSRATGIPDRFSGSGSGTDFTLTISRLEPEDFAVYYCQQYGSSPRTFGGGTKLEIK
notes: also called rx9; D12
Question: Does B7 bind (Bovine serum albumin [3])?
Answer: no binding (tested: 1:25 phage supernatant)

B8: Clone 32 (VH5Vκ4), humanised variant of clone #28, human IgG1 (antibody, V domains shown)
VH: QVQLQESGPGLVKPSETLSLTCTVSGFSLNNYDMSWVRQAPGKGLEWIGTVSTTYRRYYASWAKGRFTISRDNSKNTLDLQMTSLTAEDTATYFCAASGIWGRGTLVTVSS
VL: DIQMTQSPSTLSASVGDRVTITCQSSQRVYSNYLAWYQQKPGQPPKRLIFLASTLESGVPSRFSGSGSGTEFTLTISSLQPDDFATYYCAGTYTGSIWAFGGGTKVEIK
notes: also called VH5VK4; VH5Vk4
Question: Which “increase of uptake of aggregated tau into human iPSC-derived microglia” value [4] does the source give for B8 here?
Answer: 243 % increase

Question: What about the “inhibition of uptake of aggregated tau into human iPSC-derived astrocytes” value [4] of the same binder?
Answer: 45.7 % inhibition

Question: What about the “inhibition of uptake of aggregated tau into human iPSC-derived neurons” value [4] of the same binder?
Answer: 41.3 % inhibition

Question: And the “inhibition of uptake of monomeric tau into human iPSC-derived astrocytes” value [5]?
Answer: 45.7 % inhibition

Question: And the “inhibition of uptake of monomeric tau into human iPSC-derived neurons” value [5]?
Answer: 64.2 % inhibition

Question: What about the Kd [6] of the same binder?
Answer: 33.6 nM

Question: And the “Relative KD” value [6]?
Answer: 1.35 fold vs VH0VK0

Question: And the koff [6]?
Answer: 0.00239 s⁻¹

Question: What about the kon [6] of the same binder?
Answer: 71100 M⁻¹ s⁻¹

Question: What about the Kd [7] of the same binder?
Answer: 67.3 nM

Question: What about the “Relative KD” value [7] of the same binder?
Answer: 1.49 fold vs VH0VK0

Question: What about the koff [7] of the same binder?
Answer: 0.00239 s⁻¹

Question: And the kon [7]?
Answer: 35500 M⁻¹ s⁻¹

Question: Does B8 bind (Bovine serum albumin [8])?
Answer: no binding (tested: supernatant 1:100)

B9: Clone 24 (VH3Vκ4), humanised variant of clone #28, human IgG1 (antibody, V domains shown)
VH: QVQLQESGPGLVKPSETLSLTCTVSGFSLNNYDMSWVRQAPGKGLEWIGTVSTTYRRYYASWAKGRFTISKTSSTTVDLQMTSLTAEDTATYFCAASGIWGRGTLVTVSS
VL: DIQMTQSPSTLSASVGDRVTITCQSSQRVYSNYLAWYQQKPGQPPKRLIFLASTLESGVPSRFSGSGSGTEFTLTISSLQPDDFATYYCAGTYTGSIWAFGGGTKVEIK
notes: also called VH3VK4; VH3Vk4
Question: B9 was tested. Which “increase of uptake of aggregated tau into human iPSC-derived microglia” value [4] did it give?
Answer: 267 % increase

Question: What about the “inhibition of uptake of aggregated tau into human iPSC-derived astrocytes” value [4] of the same binder?
Answer: 30.8 % inhibition

Question: What about the “inhibition of uptake of aggregated tau into human iPSC-derived neurons” value [4] of the same binder?
Answer: 61.4 % inhibition

Question: And the “inhibition of uptake of monomeric tau into human iPSC-derived astrocytes” value [5]?
Answer: 31.5 % inhibition

Question: And the “inhibition of uptake of monomeric tau into human iPSC-derived neurons” value [5]?
Answer: 63.3 % inhibition

Question: And the Kd [6]?
Answer: 17.1 nM

Question: What about the “Relative KD” value [6] of the same binder?
Answer: 0.69 fold vs VH0VK0

Question: And the koff [6]?
Answer: 0.0013 s⁻¹

Question: What about the kon [6] of the same binder?
Answer: 76100 M⁻¹ s⁻¹

Question: What about the Kd [7] of the same binder?
Answer: 21.2 nM

Question: And the “Relative KD” value [7]?
Answer: 0.47 fold vs VH0VK0

Question: What about the koff [7] of the same binder?
Answer: 0.00146 s⁻¹

Question: What about the kon [7] of the same binder?
Answer: 68900 M⁻¹ s⁻¹

Question: Does B9 bind (Bovine serum albumin [8])?
Answer: no binding (tested: supernatant 1:100)
